The data set in a line: soluble on expression in E. coli; label from the status in PepcDB or PDB records.
As to “MLLLPSAADGRGTAITHALTSASTLCQVEPVGRWFEAFVKRRNRNASASFQELEDKKELSEESEDEELQLEEFPMLKTLDPKDWKNQDHYAVLGLGHVRYKATQRQIKAAHKAMVLKHHPDKRKAAGEPIKEGDNDYFTCITKAYEMLSDPVKRRAFNSVDPTFDNSVPSKSEAKDNFFEVFTPVFERNSRWSNKKNVPKLGDMNSSFEDVDIFYSFWYNFDSWREFSYLDEEEKEKAECRDERRWIEKQNRATRAQRKKEEMNRIRTLVDNAYSCDPRIKKFKEEEKAKKEAEKKAKAEAKRKEQEAKEKQRQAELEAARLAKEKEEEEVRQQALLAKKEKDIQKKAIKKERQKLRNSCKTWNHFSDNEAERVKMMEEVEKLCDRLELASLQCLNETLTSCTKEVGKAALEKQIEEINEQIRKEKEEAEARMRQASKNTEKSTGGGGNGSKNWSEDDLQLLIKAVNLFPAGTNSRWEVIANYMNIHSSSGVKRTAKDVIGKAKSLQKLDPHQKDDINKKAFDKFKKEHGVVPQADNATPSERFEGPYTDFTPWTTEEQKLLEQALKTYPVNTPERWEKIAEAVPGRTKKDCMKRYKELVEMVKAKKAAQEQVLNASRAKK”, the “soluble on expression in E. coli” value was “not soluble”.
With “MLLRKFCGIEKTDNGYLIHGDAGDIKLVFMTDDIIRIRVSFDRKFKEASYALVTTAWEDELDELFQEERTRIQAKDVVCEEKEDALIFHTTALKLVMKKQPIQFLLYDVEGKLIYNDLKERAFDQDQLGRVTHYSEIHADTDHFYGFGEKTGHLDKKGRHLRMSPKDAIGADPEFGEPLYKHVPFYIRVNEENLHALGLFYNNSYDAVFDMGNERSGYWDSYCYYQADGGDIDLFLINGPKMASVLERYTYLTGRQAMPTKQSLGYTASTMYYAELEQNCDEEIYKVIQKHFDEKIYIDNFWLASGYSSGEEDNLRYVFNWNKKRFPDPEGFFEKMEQEMGINVIPNMKPGILKNHPYRKVFEQYDAFVKTPDKAEDYVGRWWGGEGRFVDFTKKAGRDAWKELLKKNLMAKGMRTVWNDNCEYDGVEDRNAYCDHEGMGGTMAELKIIQSNMMAYTGKEALKEVYPKARPYIINRAGYAGIQRYAQVWAGDNLTDWRTVKFNIATIMGMGLSGMSNAGCDIGGFAGPAPGGELLLRWIQNGIFQPRFCINSANNDNTVTQPWMYEENLPYVQAAYAQRYRMIPYLYSVMRESHENGMPVMRPLFLEFPEDVKCYRDQNLTFMFGPSVLVANVVEKGAITRTIYLPKGTTWYDMNDNFKAYEGGQTIELPVDLSSIPMFLRGSAVYMTTEDIHHIAKDTMKALDLFVSCEEDAEFTYYDDDGWSKEYEEGNFAETKISVKAGDRKQIHFHKNGFYQESWENLNLNVVSKEKGAYWVSVDGEKIPRFLIRDAFDEAETGWYYDMSDRIVKVKCKKPQKDDFEIVVSCEKFDLIGMENEI”, the “soluble on expression in E. coli” value is “not soluble”.
The entry for “MLMLRSPFSDSNVLDHFLDEITGSVQFPYWRNADHNSFNFSDNIGEIVNDESKFSVQLDVSHFKPEDLKIELDGRELKIEGIQEKKSEHGYSKRSFSKMILLPEDVDLTSVKSAISNEGKLQIEAPKKTNSSRSIPINFVAKH” is “not soluble”; for “MLMTIDISEESLAKESADLLKILLKDRTTKKSIVWATHSYELLGKGFAPSDRINPSKVTGNFANLIQPRSEKSKYEQKDRTKIRAEVFTPTWLVAKQNGYVESKLGSLSLEEYVDLRWLEVTCGEAPYMVTRYDTVTGEEIPLSERVGFVDRKLQRISREVSDEVTFYKLVKDAYHASYGYEYQGDSLLLARENLLATFEDYYLAKTGNQPTLEQKKEIATIISYNVFQMDGLKKSSPYSAKQKQSQQLSLFADELEVQEVEESKTHIKDWKKNRMIGFERLSSEESEMKFDVVIGNPPYQETGEARDEPIYHYFIDEAYKIADKSILITPARFLFKAGQTPKNWMEKMLEDKHLKVQFYELKSGKVFTGTDIKGGVAITYRDVDKDLGPIGVFTIFETLNGIVKKIEKHPEFETFSDLVYPQGIYRFSNKLFSDYPNAEKLQGKGTKNKIVSKSLTQLDFVFKNNEEKDHVALLGRIGSERVYRYINKKYLDLPETFENYNVFVPEANGSGALGEVLSTPLIGEPLIGHTDTFLSIGNFKTKFEADACIKFIKTKFARVLLGVLKVTQHNSRKTWYYVPLQDFTVNSDIDWTQSVTDIDRQLDQKYDLSPEEIAFIENHVREMD” it is “not soluble”.
Consider “MLMVVPLSEMGPGDKGIVVNILGGHNARQKLVSMGLTPGATIQVLESHPMGPIIISVGGVRFAIGKGLAGRVMVRKL”, for which the “soluble on expression in E. coli” value was “soluble”.

The record behind these values is the DeepSol protein solubility set.
